Experiments:
[1] = molecular target: Heh2-VN (budding yeast (endogenously tagged)) (UniProt Q03281); test: split reporter
[2] = molecular target: Heh1-VN (budding yeast (endogenously tagged)) (UniProt Q03707); test: split reporter
Sequence of UniProt Q03707 (Q03707 whole entry): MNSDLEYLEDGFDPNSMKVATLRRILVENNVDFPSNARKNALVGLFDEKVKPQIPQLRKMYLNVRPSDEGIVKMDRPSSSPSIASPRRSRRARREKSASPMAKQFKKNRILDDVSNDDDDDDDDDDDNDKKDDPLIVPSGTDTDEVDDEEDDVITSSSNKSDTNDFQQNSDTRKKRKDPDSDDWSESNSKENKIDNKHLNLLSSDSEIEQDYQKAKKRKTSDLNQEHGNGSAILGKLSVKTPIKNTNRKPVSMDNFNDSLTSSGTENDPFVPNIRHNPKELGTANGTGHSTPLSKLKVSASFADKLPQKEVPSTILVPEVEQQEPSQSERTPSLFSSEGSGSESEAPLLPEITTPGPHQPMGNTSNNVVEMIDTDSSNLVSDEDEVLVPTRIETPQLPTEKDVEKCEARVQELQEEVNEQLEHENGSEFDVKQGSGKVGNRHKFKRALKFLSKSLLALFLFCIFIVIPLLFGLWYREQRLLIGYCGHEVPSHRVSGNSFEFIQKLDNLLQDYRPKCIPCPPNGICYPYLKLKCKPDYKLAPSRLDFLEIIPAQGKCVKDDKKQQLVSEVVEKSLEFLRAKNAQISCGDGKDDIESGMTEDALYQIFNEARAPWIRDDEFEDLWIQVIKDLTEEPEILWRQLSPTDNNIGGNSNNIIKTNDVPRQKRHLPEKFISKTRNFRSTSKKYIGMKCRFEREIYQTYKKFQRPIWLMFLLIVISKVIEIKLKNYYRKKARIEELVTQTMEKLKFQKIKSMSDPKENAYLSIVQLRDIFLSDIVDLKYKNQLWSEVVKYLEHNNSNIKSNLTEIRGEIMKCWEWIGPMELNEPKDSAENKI

Sequence of UniProt Q03281 (Q03281 whole entry): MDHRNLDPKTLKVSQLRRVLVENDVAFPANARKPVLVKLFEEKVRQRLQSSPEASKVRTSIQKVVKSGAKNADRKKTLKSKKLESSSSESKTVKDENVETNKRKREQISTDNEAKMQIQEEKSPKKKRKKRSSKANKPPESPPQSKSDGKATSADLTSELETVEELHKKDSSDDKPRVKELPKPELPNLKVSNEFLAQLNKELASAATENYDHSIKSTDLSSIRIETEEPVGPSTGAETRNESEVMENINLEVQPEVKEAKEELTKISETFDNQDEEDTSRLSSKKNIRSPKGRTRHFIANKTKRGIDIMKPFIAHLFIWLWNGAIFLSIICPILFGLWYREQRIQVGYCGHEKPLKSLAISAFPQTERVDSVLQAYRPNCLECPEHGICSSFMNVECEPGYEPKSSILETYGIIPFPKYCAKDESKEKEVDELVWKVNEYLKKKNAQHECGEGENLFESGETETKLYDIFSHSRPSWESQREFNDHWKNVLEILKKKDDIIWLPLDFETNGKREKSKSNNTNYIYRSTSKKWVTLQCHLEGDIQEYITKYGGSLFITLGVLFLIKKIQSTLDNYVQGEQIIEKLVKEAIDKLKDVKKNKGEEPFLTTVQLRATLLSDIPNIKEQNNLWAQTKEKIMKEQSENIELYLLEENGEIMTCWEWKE

Chm7-VC (natural protein)
percent of cells with a BiFC focus [1]: 3% | percent of cells with a BiFC focus [2]: 28%

From article doi:10.1101/049148
